In US20200270365A1 (JIANGSU HENGRUI MEDICINE, published 2020):
Positions count from the first letter of the chain named. Blank lines part the entries; values can stand above or below the binder they belong to.

Assays:
[1] = biological target: T1, PCSK9 D374Y mutant protein inserted with biotin receiving peptide BP15 and His-tag: PCSK9-D374Y-BP15-His6 (human, UniProt Q8NBP7 153-692; A8T644 31-152, biotin on the BP15 biotin receiving peptide); assay: ELISA, biotin PCSK9-Y on streptavidin plate
T1 construct: also called PCSK9-Y; mutant PCSK9
Experimental: The binding ability of anti-PCSK9 antibodies of the present invention to PCSK9-Y protein (mutant PCSK9, SEQ ID NO: 6) was detected by measuring the amounts of antibodies binding to PCSK9-Y immobilized on the ELISA plate.
Streptavidin (sigma, CAT #S4762) was diluted to 2 μg/ml with PBS and was added into a 96-well ELISA plate, at 4° C. for overnight. The plate was washed and then was blocked with Tris buffer (including 0.9 mM CaCl₂, 0.05% Tween 20 and 5% skim milk) at 37° C. for 2 hours. The plate was washed and 100 μl/well of biotin-labeled PCSK9-Y (produced in-house, diluted with Tris buffer containing 0.9 mM CaCl₂, 0.05% Tween 20 and 1% skim milk) was added and incubated at 37° C. for 1 hour. After the wash step, various concentrations of diluted PCSK9 antibody samples were added to the plate and incubated at 37° C. for 1 hour. […] Then the plate was washed and tetramethyl brenzidine solution was added for development. Finally, the stop buffer was added and the OD450 value was measured on the Microplate reader, and then EC50 was calculated.

[2] = biological target: T1, PCSK9 D374Y mutant protein inserted …; assay: competition ELISA, LDLR-FC coated, biotin PCSK9-Y + antibody
Experimental: The blocking ability of PCSK9 antibodies according to the present invention for the binding of LDLR-FC and PCSK9-Y (mutant PCSK9, SEQ ID NO: 6) was tested by measuring the amount of PCSK9-Y binding to LDLR in the presence of the antibodies.
(§1) LDLR-FC (produced in-house, with sequence of SEQ ID NO: 8) was diluted to 2 μg/ml with phosphate buffer and was added into the 96-well ELISA plate, at 4° C. overnight. The plate was washed and then blocked with Tris buffer (including 0.9 mM CaCl₂, 0.05% Tween 20 and 5% skim milk) at 37° C. for 2 hours. Then the plate was washed and 100 μl/well of mixture of biotin-labeled mutant PCSK9 (diluted to 1 μg/ml with Tris buffer containing 0.9 mM CaCl₂, 0.05% Tween 20 and 1% skim milk) and antibody samples (diluted with Tris buffer containing 0.9 mM CaCl₂, 0.05% Tween 20 and 1% skim milk) was added and incubated at 37° C. for 1 hour. Then the plate was washed again and horseradish peroxidase-streptavidin (sigma, CAT #S2438) was added and incubated at 37° C. for 1 hour. Then the plate was washed and tetramethyl brenzidine solution was added for development. Finally, the stop buffer was added and OD450 value was measured on the Microplate reader, then IC50 value was calculated.

[3] = biological target: T2, PCSK9 protein inserted with biotin receiving peptide BP15 and His-tag: PCSK9-BP15-His6 (human, UniProt Q8NBP7 153-692; A8T644 31-152, biotin on the BP15 biotin receiving peptide (labeled during the expression)); assay: ELISA, biotin PCSK9 on streptavidin plate
T2 construct: also called WT PCSK9; PCSK9 WT
Experimental: The binding ability of anti-PCSK9 antibodies of the present invention to PCSK9 protein (WT PCSK9, SEQ ID NO: 5) was detected by measuring the amounts of antibodies binding to PCSK9 immobilized on the ELISA plate.
Streptavidin (sigma, CAT #S4762) was diluted to 2 μg/ml with PBS and was added into a 96-well ELISA plate, at 4° C. for overnight. The plate was washed and then was blocked with Tris buffer (including 0.9 mM CaCl₂, 0.05% Tween 20 and 5% skim milk) at 37° C. for 2 hours. Then the plate was washed again and 100 μl/well of biotin-labeled PCSK9 (produced in-house, diluted with Tris buffer containing 0.9 mM CaCl₂, 0.05% Tween 20 and 1% skim milk) was added and incubated at 37° C. for 1 hour. After the wash step various concentrations of diluted PCSK9 antibody samples was added to the plate and incubated at 37° C. for 1 hour. […] Then the plate was washed and tetramethyl brenzidine solution was added for development. Finally, the stop buffer was added and the OD450 value was measured on the Microplate reader, and then EC50 was calculated.

[4] = biological target: T2, PCSK9 protein inserted with biotin …; assay: competition ELISA, LDLR-FC coated, biotin PCSK9 + antibody
Experimental: The blocking ability of PCSK9 antibodies according to the present invention for the binding of LDLR-FC (produced in-house, with sequence of SEQ ID NO: 8) and PCSK9 (SEQ ID NO: 5) was tested by measuring the amount of PCSK9 binding to LDLR in the presence of the antibodies.
as §1, with “LDLR-FC” for “LDLR-FC (produced in-house, with sequence of SEQ ID NO: 8)”, “to 5” for “to 2”, “plate, kept” for “plate,”, “biotin-labeled” for “biotin-labeled mutant”, “to 2” for “to 1”

B1: h011-3050 (antibody, V domains shown)
VH: QVQLVQSGAEVKKPGASVKVSCKASGYTFTGYTIHWVRQAPGQGLEWMGEILPSSTYTKFNQKFKDRVTMTRDTSISTAYMELSRLRSDDTAVYYCARERIYSNYWFFDVWGQGTTVTVSS
VL: DIVMTQSPSSLSASVGDRVTITCKASQNVYTAVAWYQQKPGKSPKLLIYSASNRYTGVPSRFSGSGSGTDFTLTISSLQPEDFATYFCQQYSSYPYTFGGGTKVEIK
EC50 [1]: 0.00525 µg/mL
IC50 [2]: 0.123 µg/mL
EC50 [3]: 0.00312 µg/mL
IC50 [4]: 0.598 µg/mL

B2: h011-3058 (antibody, V domains shown)
VH: B1 VH with L52N, S55G
VL: B1 VL
EC50 [1]: 0.00606 µg/mL
IC50 [2]: 0.162 µg/mL
EC50 [3]: 0.00369 µg/mL
IC50 [4]: 0.542 µg/mL

B6: h011-3118 (antibody, V domains shown)
VH: B1 VH with E50Y, L52N
VL: B1 VL with T31W, A32E, A34V
EC50 [1]: 0.00851 µg/mL
IC50 [2]: 0.23 µg/mL
EC50 [3]: 0.00351 µg/mL
IC50 [4]: 1.04 µg/mL

B7: h011-3070 (antibody, V domains shown)
VH: B1 VH with E50Y, L52N, R100N, S103F, V110R
VL: B1 VL
EC50 [1]: 0.0144 µg/mL
IC50 [2]: 0.228 µg/mL
EC50 [3]: 0.00511 µg/mL
IC50 [4]: 0.629 µg/mL

B8: h011-3065 (antibody, V domains shown)
VH: B1 VH with T33D, E50Y, L52N
VL: B1 VL
EC50 [1]: 0.0109 µg/mL
IC50 [2]: 0.312 µg/mL
EC50 [3]: 0.00539 µg/mL
IC50 [4]: 0.73 µg/mL

B9: h011-3121 (antibody, V domains shown)
VH: B1 VH with E50Y, L52N
VL: B1 VL with Y91L, Y94Q, Y96E
EC50 [1]: 0.00695 µg/mL
IC50 [2]: 0.174 µg/mL
EC50 [3]: 0.00378 µg/mL
IC50 [4]: 0.662 µg/mL

B11: h011-3147 (antibody, V domains shown)
VH: B1 VH with L52I
VL: B1 VL
EC50 [1]: 0.00668 µg/mL
IC50 [2]: 0.173 µg/mL
EC50 [3]: 0.00483 µg/mL
IC50 [4]: 0.567 µg/mL

B12: h011-3073 (antibody, V domains shown)
VH: B1 VH with E50Y, L52N, R100N, Y102F, V110R
VL: B1 VL
EC50 [1]: 0.0123 µg/mL
IC50 [2]: 0.129 µg/mL
EC50 [3]: 0.00389 µg/mL
IC50 [4]: 0.604 µg/mL

B16: h011-3133 (antibody, V domains shown)
VH: B1 VH with T33E, E50Y, L52N, S55A
VL: B1 VL
EC50 [1]: 0.00492 µg/mL
IC50 [2]: 0.175 µg/mL
EC50 [3]: 0.00435 µg/mL
IC50 [4]: 0.495 µg/mL

B17: h011-3111 (antibody, V domains shown)
VH: B1 VH with E50Y, L52N
VL: B1 VL with T31W, A32E, A34D
EC50 [1]: 0.00681 µg/mL
IC50 [2]: 0.226 µg/mL
EC50 [3]: 0.00498 µg/mL
IC50 [4]: 1.22 µg/mL

B18: h011-3093 (antibody, V domains shown)
VH: B1 VH with E50Y, L52N
VL: B1 VL with S50E, A51M, S52V
EC50 [1]: 0.00989 µg/mL
IC50 [2]: 0.287 µg/mL
EC50 [3]: 0.00381 µg/mL
IC50 [4]: 0.706 µg/mL

B19: h011-3095 (antibody, V domains shown)
VH: B1 VH with E50Y, L52N
VL: B1 VL with S50E
EC50 [1]: 0.0132 µg/mL
IC50 [2]: 0.391 µg/mL
EC50 [3]: 0.00441 µg/mL
IC50 [4]: 0.582 µg/mL

B20: h011-3120 (antibody, V domains shown)
VH: B1 VH with E50Y, L52N
VL: B1 VL with Y91F, S93W, Y94F
EC50 [1]: 0.00711 µg/mL
IC50 [2]: 0.213 µg/mL
EC50 [3]: 0.00538 µg/mL
IC50 [4]: 0.911 µg/mL

The next lines start with the values.

EC50 [1]: 0.0169 µg/mL
IC50 [2]: 0.579 µg/mL
EC50 [3]: 0.00469 µg/mL
IC50 [4]: 0.628 µg/mL
B3: h011-3194 (antibody, V domains shown)
VH: B1 VH with E50Y, L52N
VL: B1 VL with Y91L

EC50 [1]: 0.127 µg/mL
IC50 [2]: 2.36 µg/mL
EC50 [3]: 0.00664 µg/mL
IC50 [4]: 0.698 µg/mL
B4: h011-3192 (antibody, V domains shown)
VH: B1 VH with E50Y, L52N
VL: B1 VL with A32E

EC50 [1]: 0.0066 µg/mL
IC50 [2]: 0.226 µg/mL
EC50 [3]: 0.00631 µg/mL
IC50 [4]: 0.74 µg/mL
B5: h011-3191 (antibody, V domains shown)
VH: B1 VH with E50Y, L52V
VL: B1 VL

EC50 [1]: 0.00704 µg/mL
IC50 [2]: 0.156 µg/mL
EC50 [3]: 0.0045 µg/mL
IC50 [4]: 0.666 µg/mL
B10: h011-3187 (antibody, V domains shown)
VH: B1 VH with E50Y, L52N
VL: B1 VL with Y91L, Y94S, Y96E

EC50 [1]: 0.00478 µg/mL
IC50 [2]: 0.222 µg/mL
EC50 [3]: 0.005 µg/mL
IC50 [4]: 0.837 µg/mL
B13: h011-3190 (antibody, V domains shown)
VH: B1 VH with L52N
VL: B1 VL

EC50 [1]: 0.0221 µg/mL
IC50 [2]: 0.871 µg/mL
EC50 [3]: 0.0047 µg/mL
IC50 [4]: 0.621 µg/mL
B14: h011-3193 (antibody, V domains shown)
VH: B1 VH with E50Y, L52N
VL: B1 VL with A34D

EC50 [1]: 0.0112 µg/mL
IC50 [2]: 0.23 µg/mL
EC50 [3]: 0.00529 µg/mL
IC50 [4]: 1.67 µg/mL
B15: h011-3174 (antibody, V domains shown)
VH: B1 VH with E50Y, L52N, Y102F
VL: B1 VL with S50Q

EC50 [1]: 0.00678 µg/mL
IC50 [2]: 0.233 µg/mL
EC50 [3]: 0.00221 µg/mL
IC50 [4]: 0.857 µg/mL
B21: h011-3181 (antibody, V domains shown)
VH: B1 VH with E50Y, L52N
VL: B1 VL with Y91L, Y96D
